B1: His-menin (natural protein, UniProt O00255-2 1-610, looked up)
chain: MGLKAAQKTLFPLRSIDDVVRLFAAELGREEPDLVLLSLVLGFVEHFLAVNRVIPTNVPELTFQPSPAPDPPGGLTYFPVADLSIIAALYARFTAQIRGAVDLSLYPREGGVSSRELVKKVSDVIWNSLSRSYFKDRAHIQSLFSFITGTKLDSSGVAFAVVGACQALGLRDVHLALSEDHAWVVFGPNGEQTAEVTWHGKGNEDRRGQTVNAGVAERSWLYLKGSYMRCDRKMEVAFMVCAINPSIDLHTDSLELLQLQQKLLWLLYDLGHLERYPMALGNLADLEELEPTPGRPDPLTLYHKGIASAKTYYRDEHIYPYMYLAGYHCRNRNVREALQAWADTATVIQDYNYCREDEEIYKEFFEVANDVIPNLLKEAASLLEAGEERPGEQSQGTQSQGSALQDPECFAHLLRFYDGICKWEEGSPTPVLHVGWATFLVQSLGRFEGQVRQKVRIVSREAEAAEAEEPWGEEAREGRRRGPRRESKPEEPPPPKKPALDKGLGTGQGAVSGPPRKPPGTVAGTARGPEGGSTAQVPAPTASPPPEGPVLTFQSEKMKGMKELLVATKINSSAIKLQLTAQSQVQMKKQKVSTPSDYTLSFLKRQRKGL

Experiment [1] deals with GST-Daxx (UniProt Q9UER7 1-740). Kind of experiment: pull-down.
Sequence of GST-Daxx (Q9UER7 whole entry): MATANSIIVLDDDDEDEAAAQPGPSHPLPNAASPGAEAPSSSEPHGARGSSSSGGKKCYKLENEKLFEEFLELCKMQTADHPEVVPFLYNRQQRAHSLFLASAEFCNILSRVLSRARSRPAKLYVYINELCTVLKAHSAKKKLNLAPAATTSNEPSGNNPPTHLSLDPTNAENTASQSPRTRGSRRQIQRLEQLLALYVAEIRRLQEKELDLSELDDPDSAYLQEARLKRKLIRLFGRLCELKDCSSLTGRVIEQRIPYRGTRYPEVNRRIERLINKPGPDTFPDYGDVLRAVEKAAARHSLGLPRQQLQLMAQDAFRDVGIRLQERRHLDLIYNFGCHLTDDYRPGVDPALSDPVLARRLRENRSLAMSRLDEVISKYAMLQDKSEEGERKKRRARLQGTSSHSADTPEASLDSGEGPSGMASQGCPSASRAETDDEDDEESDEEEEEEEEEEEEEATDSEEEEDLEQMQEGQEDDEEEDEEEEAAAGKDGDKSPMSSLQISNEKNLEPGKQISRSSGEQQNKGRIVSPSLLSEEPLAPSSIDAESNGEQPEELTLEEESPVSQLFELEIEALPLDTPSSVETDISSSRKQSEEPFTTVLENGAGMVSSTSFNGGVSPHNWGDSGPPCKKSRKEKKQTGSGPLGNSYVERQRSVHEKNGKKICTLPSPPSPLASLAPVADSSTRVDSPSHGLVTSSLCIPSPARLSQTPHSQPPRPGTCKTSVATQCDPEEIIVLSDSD
Experiment [2] deals with His-Daxx (183–398) (UniProt Q9UER7 183-398). In words: pull-down.
Experiment [3] deals with B1. In words: co-IP.

Where no end group is shown, it is not given here.

For the molecule B1, the binding result in experiment [1] is “binds”.

B2: biotinylated menin peptide GTCKWEEGSPTPVLHVGWATQSE (peptide)
peptide: GTCKWEEGSPTPVLHVGWATQSE
modifications: also: biotinylated
Consider B2, for which the binding result in experiment [2] is “binds”.

B3: His-Daxx (183–260) (domain or fragment, UniProt Q9UER7 183-260, looked up)
chain: GSRRQIQRLEQLLALYVAEIRRLQEKELDLSELDDPDSAYLQEARLKRKLIRLFGRLCELKDCSSLTGRVIEQRIPYR
Consider B3, for which, in experiment [3], the binding result was “binds”.

The record behind these values is article PMC5243199 (Cancer research, 2016).
